From patent publication US8993518B2, “Compositions and methods for treating antiphospholipid syndrome” (Beth Israel Deaconess Medical Center, Inc., priority 2010, dated 2015)

Legend:
[1] = biological target: T1, domain V of β2GPI (β2GPI-DV) (Homo sapiens, UniProt P02749); assay: Inhibition of binding of isolated domain V of β2GPI to cardiolipin in the absence of antibodies; details: in the absence of dimerization antibodies, read-out: concentration at half-maximal inhibition of binding of domain V to cardiolipin
T1 construct: Domain V of β2GPI (residues 244-326), was subcloned into a pET15b vector (Novagen); histidine tag followed by TEV protease site (N, cleaved yes); made in house
T1 sequence (P02749 263-345): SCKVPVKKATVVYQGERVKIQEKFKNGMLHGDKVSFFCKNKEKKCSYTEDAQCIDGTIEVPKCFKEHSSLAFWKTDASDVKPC
Description: (§1) Cardiolipin-coated 96 well plates available as part of the ImmunoWELL cardiolipin IgG test kit (GenBio) were blocked with 0.5% of skim milk and 2% BSA in 20 mM Tris, 100 mM NaCl, 2 mM CaCl2, pH 7.4. The assay buffer contained 20 mM Tris, 100 mM NaCl, 2 mM CaCl2, pH 7.4 with 2% BSA and the wash buffer was 20 mM Tris, 100 mM NaCl, 2 mM CaCl2, pH 7.4. When the purified β2GPI (Haematologic Technologies, Inc.) was used in experiments, 27 mM glycine was added to the assay buffer to account for glycine present in the stock solution of β2GPI. β2GPI bound to cardiolipin was detected with peroxidase-conjugated anti-β2GPI antibodies (Cedarlane, CL20021HP, 2 mg/ml) diluted 1:2500. […] The peroxidase activity of the bound antibodies was detected using 2-2′-azino-di-[3-ethylbenzthizzoline]sulfonate (ABTS) chromogenic reagent by measuring OD at 405 nm. […] The fits of the raw data and the titration data points were then normalized to the maximum binding determined from the fit to facilitate comparison.
(§2) For the inhibition studies, increasing concentrations of A1 or A1-A1 were added to a constant amount of β2GPI (50 nM), normal human serum (1%) or β2GPI-DV (130 nM) and incubated for 1 hour at room temperature. […] Then, samples were incubated on wells for an additional 1 hour and, after washing, the bound β2GPI/anti-β2GPI or β2GPI-DV/anti-tag antibody complexes were detected.

[2] = biological target: T2, β2GPI in normal human serum (Homo sapiens, UniProt P02749); assay: Inhibition of binding of β2GPI in human serum to cardiolipin in the absence of anti-β2GPI antibodies; details: 1% human serum, read-out: concentration of inhibitor at 50% inhibition of β2GPI in serum binding to cardiolipin
T2 construct: pooled normal human serum (Innovative Research); tissue Innovative Research; host or cells: pooled normal human serum
T2 sequence (P02749 20-345): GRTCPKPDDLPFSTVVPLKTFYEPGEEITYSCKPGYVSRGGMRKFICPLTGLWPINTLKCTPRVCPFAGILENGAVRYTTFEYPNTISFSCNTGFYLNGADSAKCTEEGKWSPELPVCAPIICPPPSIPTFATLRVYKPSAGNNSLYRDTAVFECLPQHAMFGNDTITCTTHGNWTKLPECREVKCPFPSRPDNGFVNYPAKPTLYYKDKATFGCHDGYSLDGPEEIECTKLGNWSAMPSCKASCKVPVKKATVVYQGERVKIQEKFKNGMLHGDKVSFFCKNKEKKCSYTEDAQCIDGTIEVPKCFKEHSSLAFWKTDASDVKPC
Description: as §1, §2

[3] = biological target: T3, β2GPI/anti-β2GPI antibody complexes (β2GPI purified from human plasma) (Homo sapiens, UniProt P02749); assay: Inhibition of binding of purified β2GPI to cardiolipin in the presence of anti-β2GPI antibodies; details: 10 nM purified β2GPI, one-site inhibition fit, read-out: half-maximal inhibition of binding of purified β2GPI to cardiolipin
T3 construct: We used β2GPI purified from human plasma available from Haematologic Technologies, Inc; purchased Haematologic Technologies, Inc; host or cells: human plasma
T3 sequence (P02749 20-345): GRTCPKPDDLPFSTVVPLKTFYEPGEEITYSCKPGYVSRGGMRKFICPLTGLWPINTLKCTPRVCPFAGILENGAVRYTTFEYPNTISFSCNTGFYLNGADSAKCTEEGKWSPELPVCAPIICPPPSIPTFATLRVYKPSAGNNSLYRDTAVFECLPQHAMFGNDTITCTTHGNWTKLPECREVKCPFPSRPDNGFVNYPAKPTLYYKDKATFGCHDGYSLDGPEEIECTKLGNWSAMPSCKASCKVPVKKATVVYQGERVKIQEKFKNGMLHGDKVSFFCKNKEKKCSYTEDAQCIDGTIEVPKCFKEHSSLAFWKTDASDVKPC
Description: (§3) Cardiolipin-coated 96 well plates available as part of the ImmunoWELL cardiolipin IgG test kit (GenBio) were blocked with 0.5% of skim milk and 2% BSA in 20 mM Tris, 100 mM NaCl, 2 mM CaCl2, pH 7.4. The assay buffer contained 20 mM Tris, 100 mM NaCl, 2 mM CaCl2, pH 7.4 with 2% BSA and the wash buffer was 20 mM Tris, 100 mM NaCl, 2 mM CaCl2, pH 7.4. When the purified β2GPI (Haematologic Technologies, Inc.) was used in experiments, 27 mM glycine was added to the assay buffer to account for glycine present in the stock solution of β2GPI. β2GPI bound to cardiolipin was detected with peroxidase-conjugated anti-β2GPI antibodies (Cedarlane, CL20021HP, 2 mg/ml) diluted 1:2500. To detect β2GPI-DV bound to cardiolipin, we used peroxidase-conjugated anti-HA antibody (Abcam, ab1265, 1 mg/ml) directed to HA epitope tag at the N-terminus of β2GPI-DV diluted 1:2500. The peroxidase activity of the bound antibodies was detected using 2-2′-azino-di-[3-ethylbenzthizzoline]sulfonate (ABTS) chromogenic reagent by measuring OD at 405 nm. […] The fits of the raw data and the titration data points were then normalized to the maximum binding determined from the fit to facilitate comparison.
(§4) […] Then, samples were incubated on wells for an additional 1 hour and, after washing, the bound β2GPI/anti-β2GPI or β2GPI-DV/anti-tag antibody complexes were detected.

[4] = biological target: T4, β2GPI purified from human plasma (Homo sapiens, UniProt P02749); assay: Inhibition of binding of purified β2GPI to cardiolipin in the absence of anti-β2GPI antibodies; details: in the absence of anti-β2GPI antibodies (FIG. 5)
T4 construct: We used β2GPI purified from human plasma available from Haematologic Technologies, Inc; purchased Haematologic Technologies, Inc; host or cells: human plasma
T4 sequence (P02749 20-345): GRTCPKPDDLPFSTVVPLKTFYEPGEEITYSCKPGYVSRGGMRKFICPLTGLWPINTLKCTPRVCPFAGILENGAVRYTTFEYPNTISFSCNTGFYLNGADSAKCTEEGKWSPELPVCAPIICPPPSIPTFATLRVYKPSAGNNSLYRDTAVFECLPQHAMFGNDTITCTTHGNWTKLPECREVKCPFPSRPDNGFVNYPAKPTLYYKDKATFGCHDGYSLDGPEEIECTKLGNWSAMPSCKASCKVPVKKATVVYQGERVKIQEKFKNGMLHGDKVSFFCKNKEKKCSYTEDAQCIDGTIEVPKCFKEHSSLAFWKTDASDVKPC
Description: as §1, §2

[5] = biological target: T5, dimeric β2GPI-DV/anti-tag antibody complexes (Homo sapiens, UniProt P02749); assay: Inhibition of binding of β2GPI-DV to cardiolipin in the presence of dimerization (anti-tag) antibodies; details: 30 nM β2GPI-DV, read-out: half-maximal inhibition of binding of β2GPI-DV to cardiolipin
T5 construct: Domain V of β2GPI (residues 244-326), was subcloned into a pET15b vector (Novagen); histidine tag followed by TEV protease site (N, cleaved yes); made in house
T5 sequence (P02749 263-345): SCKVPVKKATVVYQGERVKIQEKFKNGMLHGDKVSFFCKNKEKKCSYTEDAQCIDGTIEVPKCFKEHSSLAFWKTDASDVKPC
Description: as §3, §4

domain V of β2GPI = biological target: T6, domain V of β2GPI (Homo sapiens, UniProt P02749); details: Lee et al., Structure 18:366-376, 2010; read-out: affinity of A1 for domain V of β2GPI; cited from earlier work
T6 sequence (P02749 263-345 limits assumed): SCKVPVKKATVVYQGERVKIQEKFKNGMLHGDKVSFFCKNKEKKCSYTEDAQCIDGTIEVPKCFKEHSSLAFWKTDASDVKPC

[6] = biological target: T7, β2GPI/anti-β2GPI antibody complexes (β2GPI in normal human serum) (Homo sapiens, UniProt P02749); assay: Inhibition of binding of β2GPI in human serum to cardiolipin in the presence of anti-β2GPI antibodies; details: 0.04% human serum, read-out: half-maximal inhibition of binding of β2GPI in serum to cardiolipin
T7 construct: pooled normal human serum (Innovative Research); tissue Innovative Research; host or cells: pooled normal human serum
T7 sequence (P02749 20-345): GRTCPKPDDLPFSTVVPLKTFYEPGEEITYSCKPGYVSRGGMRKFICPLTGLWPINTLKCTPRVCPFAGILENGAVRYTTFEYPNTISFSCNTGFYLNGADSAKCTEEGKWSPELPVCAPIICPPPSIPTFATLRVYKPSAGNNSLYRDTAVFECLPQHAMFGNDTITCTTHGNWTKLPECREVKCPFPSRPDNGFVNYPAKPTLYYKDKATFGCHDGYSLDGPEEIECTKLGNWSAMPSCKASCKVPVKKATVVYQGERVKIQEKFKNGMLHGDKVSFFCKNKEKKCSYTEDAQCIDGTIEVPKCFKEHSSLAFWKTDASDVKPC
Description: as §3, §4

[7] = Binding of purified β2GPI to cardiolipin-coated surface; design: species or system human; details: read-out: half-maximal binding of purified β2GPI to cardiolipin
Description: as §1
(§5) For the binding studies, 50 μl of increasing concentrations of either β2GPI (Haematologic Technologies, Inc.), pooled normal human serum (Innovative Research), or the purified recombinant β2GPI-DV were applied to wells and incubated for 1 hour at room temperature. […] Then, the samples were applied to cardiolipin, incubated for 1 hour, washed, and bound β2GPI or β2GPI-DV was detected.

[8] = Binding of β2GPI in normal human serum to cardiolipin-coated surface
Description: as §1, §5

[9] = Binding of β2GPI-DV to cardiolipin-coated surface; details: read-out: binding of β2GPI-DV to cardiolipin, one-site model fit
Description: as §1, §5

[10] = in the absence of anti-β2GPI antibodies
[11] = in the presence of anti-β2GPI antibodies

Molecule “A1: Monomeric first LA module, fragment of mouse ApoER2 (residues 12-47 of the mature protein)” has an IC50 [1] of 188 ± 44 µM, an IC50 [2] of 176 ± 37 µM and an IC50 [3] of 191 ± 34 µM. The “inhibition of binding of purified β2GPI to cardiolipin” value [4] was “only weakly inhibited”, the IC50 [5] was 204 ± 33 µM and the Kd (domain V of β2GPI) was 1000 µM. For the same molecule, the IC50 [6] was 218 ± 21 µM.

B1: A1-A1: Dimeric inhibitor: two A1 (LA) modules from ApoER2 connected by a flexible Gly-Ser-Ser-Gly linker, SEQ ID NO: 1 (protein)
chain: AECEEDQFRCRNERCIPLVWRCDEDNDCSDNSDEDDCGSSGCEEDQFRCRNERCIPLVWRCDEDNDCSDNSDEDDCEA
For B1, the “inhibition of binding of purified β2GPI to cardiolipin” value [4] was “only weakly inhibited”.

B2: β2GPI: Beta2-glycoprotein I, in pooled normal human serum or purified from human plasma (Haematologic Technologies, Inc.) (protein)
chain: GRTCPKPDDLPFSTVVPLKTFYEPGEEITYSCKPGYVSRGGMRKFICPLTGLWPINTLKCTPRVCPFAGILENGAVRYTTFEYPNTISFSCNTGFYLNGADSAKCTEEGKWSPELPVCAPIICPPPSIPTFATLRVYKPSAGNNSLYRDTAVFECLPQHAMFGNDTITCTTHGNWTKLPECREVKCPFPSRPDNGFVNYPAKPTLYYKDKATFGCHDGYSLDGPEEIECTKLGNWSAMPSCKASCKVPVKKATVVYQGERVKIQEKFKNGMLHGDKVSFFCKNKEKKCSYTEDAQCIDGTIEVPKCFKEHSSLAFWKTDASDVKPC
In the case of B2, the EC50 [7, 10] is reported as 0.043 ± 0.004 µM, the EC50 [7, 11] is reported as 0.0024 ± 0.0004 µM and the “half-maximal binding of β2GPI in serum to cardiolipin” value [8, 10] is reported as 0.40±0.05 % of serum. For the same molecule, the “half-maximal binding of β2GPI in serum to cardiolipin” value [8, 11] was 0.028±0.004 % of serum.

B3: β2GPI-DV: Recombinant isolated domain V of β2GPI (residues 244-326), with an N-terminal HA tag in the binding assays (protein)
chain: YPYDVPDYASCKVPVKKATVVYQGERVKIQEKFKNGMLHGDKVSFFCKNKEKKCSYTEDAQCIDGTIEVPKCFKEHSSLAFWKTDASDVKPC
With B3 the EC50 ([9]; in the absence of anti-tag antibodies) was 0.112 ± 0.021 µM and the EC50 ([9]; in the presence of anti-tag antibodies) was 0.019 ± 0.001 µM.
